Measurements reported in paper PMC2185550.
“And” between values parts separate entries of the source, which are not always exact repeats. Equal entries are not always repeated.

What was measured:
[1] = molecular target: CREB-binding protein (CBP) (human (endogenous in HEp-2)) (UniProt Q92793); experiment: co-IP
[2] = molecular target: p300 (human (endogenous in HEp-2)) (UniProt Q09472); experiment: co-IP
Chain of UniProt Q09472 (Q09472 whole entry): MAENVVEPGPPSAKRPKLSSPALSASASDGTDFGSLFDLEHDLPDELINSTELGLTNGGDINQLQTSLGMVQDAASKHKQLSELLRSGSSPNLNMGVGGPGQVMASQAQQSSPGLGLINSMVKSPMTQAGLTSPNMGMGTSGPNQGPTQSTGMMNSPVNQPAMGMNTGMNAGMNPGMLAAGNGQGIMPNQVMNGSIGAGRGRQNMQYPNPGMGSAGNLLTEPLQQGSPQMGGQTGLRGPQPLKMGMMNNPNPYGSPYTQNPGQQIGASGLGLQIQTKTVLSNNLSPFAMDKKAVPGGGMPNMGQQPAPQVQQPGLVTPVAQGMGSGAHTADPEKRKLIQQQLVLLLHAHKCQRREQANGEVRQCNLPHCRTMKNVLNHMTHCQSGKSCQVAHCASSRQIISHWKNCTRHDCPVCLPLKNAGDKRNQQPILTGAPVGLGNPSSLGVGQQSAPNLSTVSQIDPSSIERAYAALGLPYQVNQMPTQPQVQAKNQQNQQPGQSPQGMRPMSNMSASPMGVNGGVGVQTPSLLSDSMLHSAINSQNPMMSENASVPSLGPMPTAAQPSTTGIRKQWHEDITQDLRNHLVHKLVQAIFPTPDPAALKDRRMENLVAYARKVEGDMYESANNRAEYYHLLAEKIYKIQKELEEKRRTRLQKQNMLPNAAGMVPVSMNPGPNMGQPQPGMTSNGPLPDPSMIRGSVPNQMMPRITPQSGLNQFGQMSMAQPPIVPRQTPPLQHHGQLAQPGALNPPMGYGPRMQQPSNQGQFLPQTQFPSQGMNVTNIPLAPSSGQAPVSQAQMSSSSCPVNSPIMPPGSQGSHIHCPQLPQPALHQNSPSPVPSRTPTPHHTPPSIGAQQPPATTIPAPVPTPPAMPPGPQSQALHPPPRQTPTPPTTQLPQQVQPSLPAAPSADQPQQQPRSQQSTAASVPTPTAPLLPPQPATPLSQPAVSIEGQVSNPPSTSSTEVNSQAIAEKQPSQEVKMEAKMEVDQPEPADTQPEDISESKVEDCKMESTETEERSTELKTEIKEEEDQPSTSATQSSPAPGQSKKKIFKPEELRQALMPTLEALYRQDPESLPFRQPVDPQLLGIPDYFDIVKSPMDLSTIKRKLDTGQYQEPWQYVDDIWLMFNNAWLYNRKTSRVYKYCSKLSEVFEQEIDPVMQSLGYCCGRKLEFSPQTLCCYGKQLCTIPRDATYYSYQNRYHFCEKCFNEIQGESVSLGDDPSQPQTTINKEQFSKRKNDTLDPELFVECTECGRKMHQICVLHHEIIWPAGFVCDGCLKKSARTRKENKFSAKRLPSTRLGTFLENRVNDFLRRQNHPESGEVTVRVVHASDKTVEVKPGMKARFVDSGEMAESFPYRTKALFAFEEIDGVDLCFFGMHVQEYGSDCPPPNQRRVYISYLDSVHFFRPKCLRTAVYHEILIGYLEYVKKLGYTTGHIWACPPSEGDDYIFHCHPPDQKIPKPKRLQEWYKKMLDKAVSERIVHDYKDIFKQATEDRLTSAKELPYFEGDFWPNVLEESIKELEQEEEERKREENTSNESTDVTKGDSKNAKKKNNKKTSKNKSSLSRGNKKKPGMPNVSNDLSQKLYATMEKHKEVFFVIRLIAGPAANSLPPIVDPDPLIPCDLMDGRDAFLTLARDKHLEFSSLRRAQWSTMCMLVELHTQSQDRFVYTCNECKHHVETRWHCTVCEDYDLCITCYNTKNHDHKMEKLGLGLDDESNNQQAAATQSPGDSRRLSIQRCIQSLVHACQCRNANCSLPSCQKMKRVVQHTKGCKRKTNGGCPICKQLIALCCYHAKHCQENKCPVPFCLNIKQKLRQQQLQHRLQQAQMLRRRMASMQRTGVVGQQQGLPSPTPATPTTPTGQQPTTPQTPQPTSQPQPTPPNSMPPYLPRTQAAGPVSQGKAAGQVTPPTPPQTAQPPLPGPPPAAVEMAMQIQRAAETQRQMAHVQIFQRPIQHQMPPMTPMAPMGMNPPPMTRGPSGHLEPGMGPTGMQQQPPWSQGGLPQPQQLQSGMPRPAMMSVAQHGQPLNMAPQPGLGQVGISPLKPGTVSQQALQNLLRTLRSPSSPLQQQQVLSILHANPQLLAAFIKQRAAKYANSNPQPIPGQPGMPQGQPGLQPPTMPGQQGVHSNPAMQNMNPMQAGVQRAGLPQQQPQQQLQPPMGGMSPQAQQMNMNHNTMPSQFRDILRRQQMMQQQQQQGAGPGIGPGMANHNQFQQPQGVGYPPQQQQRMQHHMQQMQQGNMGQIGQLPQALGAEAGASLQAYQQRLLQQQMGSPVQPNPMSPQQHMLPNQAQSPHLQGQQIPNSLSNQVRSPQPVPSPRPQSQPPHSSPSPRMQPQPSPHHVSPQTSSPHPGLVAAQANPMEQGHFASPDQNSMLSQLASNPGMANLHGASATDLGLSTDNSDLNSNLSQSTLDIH

Chain of UniProt Q92793 (Q92793 whole entry): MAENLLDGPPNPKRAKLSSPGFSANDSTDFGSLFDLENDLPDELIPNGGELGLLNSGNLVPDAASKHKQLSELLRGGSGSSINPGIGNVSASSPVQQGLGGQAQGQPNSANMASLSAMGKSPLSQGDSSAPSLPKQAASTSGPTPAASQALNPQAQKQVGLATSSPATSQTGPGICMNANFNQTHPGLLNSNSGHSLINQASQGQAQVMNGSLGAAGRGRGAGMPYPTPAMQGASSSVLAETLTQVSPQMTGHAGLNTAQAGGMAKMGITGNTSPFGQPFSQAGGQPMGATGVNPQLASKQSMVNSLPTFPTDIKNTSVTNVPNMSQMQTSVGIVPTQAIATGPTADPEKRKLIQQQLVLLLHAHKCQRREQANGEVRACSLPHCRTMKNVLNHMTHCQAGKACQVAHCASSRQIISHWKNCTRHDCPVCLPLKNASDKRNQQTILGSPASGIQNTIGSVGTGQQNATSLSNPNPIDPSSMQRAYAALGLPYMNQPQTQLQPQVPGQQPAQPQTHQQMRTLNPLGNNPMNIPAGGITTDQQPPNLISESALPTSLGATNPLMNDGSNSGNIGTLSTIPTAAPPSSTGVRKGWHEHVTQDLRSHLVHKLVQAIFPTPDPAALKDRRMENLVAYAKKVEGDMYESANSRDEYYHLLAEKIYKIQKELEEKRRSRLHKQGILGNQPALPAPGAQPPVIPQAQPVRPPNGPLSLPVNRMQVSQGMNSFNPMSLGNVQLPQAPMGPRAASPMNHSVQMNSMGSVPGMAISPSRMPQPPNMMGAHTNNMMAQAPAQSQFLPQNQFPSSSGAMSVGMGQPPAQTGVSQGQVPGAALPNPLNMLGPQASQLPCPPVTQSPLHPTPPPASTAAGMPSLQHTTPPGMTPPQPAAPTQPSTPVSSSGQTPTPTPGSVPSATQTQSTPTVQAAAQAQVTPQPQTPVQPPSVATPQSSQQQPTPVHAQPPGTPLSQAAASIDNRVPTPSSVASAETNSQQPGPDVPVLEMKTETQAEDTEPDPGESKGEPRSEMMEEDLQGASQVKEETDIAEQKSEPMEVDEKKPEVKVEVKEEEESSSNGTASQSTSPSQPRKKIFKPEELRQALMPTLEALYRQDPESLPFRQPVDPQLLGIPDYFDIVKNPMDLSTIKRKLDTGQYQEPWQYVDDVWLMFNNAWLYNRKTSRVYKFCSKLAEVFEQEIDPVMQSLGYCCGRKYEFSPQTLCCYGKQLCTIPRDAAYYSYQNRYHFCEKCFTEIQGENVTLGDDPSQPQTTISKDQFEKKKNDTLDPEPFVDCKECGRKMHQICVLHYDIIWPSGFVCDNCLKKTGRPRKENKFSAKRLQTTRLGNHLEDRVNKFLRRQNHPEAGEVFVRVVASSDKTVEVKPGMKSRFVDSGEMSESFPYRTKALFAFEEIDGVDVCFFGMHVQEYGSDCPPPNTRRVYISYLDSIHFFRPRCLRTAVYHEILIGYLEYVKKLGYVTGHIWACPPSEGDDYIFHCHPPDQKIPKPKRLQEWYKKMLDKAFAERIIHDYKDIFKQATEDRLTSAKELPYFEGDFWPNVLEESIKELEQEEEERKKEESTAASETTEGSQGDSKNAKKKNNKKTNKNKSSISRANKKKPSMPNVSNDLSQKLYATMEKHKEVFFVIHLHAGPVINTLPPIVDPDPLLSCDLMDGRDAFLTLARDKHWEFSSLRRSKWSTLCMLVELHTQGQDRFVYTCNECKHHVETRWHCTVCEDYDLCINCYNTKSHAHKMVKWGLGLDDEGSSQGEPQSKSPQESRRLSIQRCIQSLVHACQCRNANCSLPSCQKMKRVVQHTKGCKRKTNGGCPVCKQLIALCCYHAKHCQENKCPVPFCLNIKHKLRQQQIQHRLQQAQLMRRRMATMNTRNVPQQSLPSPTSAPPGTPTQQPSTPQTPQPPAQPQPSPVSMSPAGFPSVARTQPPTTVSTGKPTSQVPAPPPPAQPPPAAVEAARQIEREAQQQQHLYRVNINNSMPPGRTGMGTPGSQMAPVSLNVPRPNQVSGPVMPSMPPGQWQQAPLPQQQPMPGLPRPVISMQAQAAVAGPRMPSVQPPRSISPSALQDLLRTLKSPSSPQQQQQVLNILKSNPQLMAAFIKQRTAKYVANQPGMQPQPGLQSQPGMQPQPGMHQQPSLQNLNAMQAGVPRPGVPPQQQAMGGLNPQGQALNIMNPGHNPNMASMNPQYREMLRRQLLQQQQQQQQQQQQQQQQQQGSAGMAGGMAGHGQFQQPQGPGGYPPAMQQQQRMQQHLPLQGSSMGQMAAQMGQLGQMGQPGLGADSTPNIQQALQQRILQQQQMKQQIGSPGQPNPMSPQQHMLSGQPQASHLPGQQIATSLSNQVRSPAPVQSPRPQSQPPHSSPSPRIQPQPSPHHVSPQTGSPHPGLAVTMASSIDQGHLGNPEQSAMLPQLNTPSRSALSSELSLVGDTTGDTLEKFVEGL

“hypophosphorylated RNA polymerase II (pol IIa), largest subunit (from UniProt P24928 1-1970) (natural protein)” was tested, and the percent of pol IIa recovered in the immunoprecipitate [1] was 10% and 20% and the percent of pol IIa recovered in the immunoprecipitate [2] was 10% and 20%.
